# In patent US20140120555A1 (PIERRE FABRE MEDICAMENT, published 2014):
# Columns and labels:
# [1] = molecular target: T1, chimeric antibody c515H7; test: SPR (Biacore X): m-FcγRIII injected over c515H7 Mab immobilized on a CM4 sensorchip; heterogeneous ligand model, major component (99%)
# T1 construct: Human IgG1/kappa constant domains; also called c515H7 Mab; chimeric 515H7
# Method: (§1) 2017 RU of c515H7 Mab were immobilized using the amine coupling kit chemistry on the second flowcell (FC2) of a CM4 sensorchip. The first flowcell (FC1) activated by NHS and EDC mixture and des-activated by ethanolamine served as the reference surface to check and subtract the non specific interaction between the analyte (Fc gamma receptors) and the sensorchip matrix.
# (§2) The kinetic experiments were carried out at 25° Celsius at a flow rate of 30 μl/min. The HBS-EP buffer was used either as the running buffer or for the preparation of analyte solutions. The analyte solutions were injected during 90 seconds (association phase) with a 90 seconds delay (dissociation phase). An injection of running buffer as analyte was used as a double reference. All the sensorgrams were corrected by this double reference sensorgram.
# (§3) After each injection of the analyte, the sensorchip was regenerated by injection of 20 mM NaOH, 75 mM NaCl solution.
# [2] = molecular target: T1, chimeric antibody c515H7; test: SPR (Biacore X): m-FcγRIII injected over c515H7 Mab immobilized on a CM4 sensorchip; heterogeneous ligand model, minor component (1%)
# Method: as §1, §2, §3
# [3] = molecular target: T2, humanized antibody Hz515H7 VH1 D76N VL2; test: SPR (Biacore X): m-FcγRIII injected over hz515H7VH1D76NVL2 Mab immobilized on a CM4 sensorchip; heterogeneous ligand model, major component (66%)
# T2 construct: IgG1/kappa; also called hz515H7VL2; hz515H7-1
# [4] = molecular target: T2, humanized antibody Hz515H7 VH1 D76N VL2; test: SPR (Biacore X): m-FcγRIII injected over hz515H7VH1D76NVL2 Mab immobilized on a CM4 sensorchip; heterogeneous ligand model, minor component (34%)
# [5] = molecular target: T2, humanized antibody Hz515H7 VH1 D76N VL2; test: SPR (Biacore X): m-FcγRIII injected over hz515H7VH1D76NVL2 Mab immobilized on a CM4 sensorchip; Langmuir model
# Method: as §1, with “1964” for “2017”, “hz515H7VH1D76NVL2” for “c515H7”
# as §2
# Using the Langmuïr model the constant of dissociation was around 17 and 18 nM.
# [6] = molecular target: T1, chimeric antibody c515H7; test: SPR (Biacore X): m-FcγRIII injected over c515H7 Mab immobilized on a CM4 sensorchip; Langmuir model
# Method: as §1, §2, §3
# [7] = molecular target: T2, humanized antibody Hz515H7 VH1 D76N VL2; test: SPR (Biacore X): m-FcγRI injected over hz515H7VH1D76NVL2 Mab immobilized on a CM4 sensorchip; Langmuir model
# Method: as §1, with “1964” for “2017”, “hz515H7VH1D76NVL2” for “c515H7”
# as §2
# (§4) After each injection of the analyte, the sensorchip was regenerated by injection of either 20 mM NaOH solution after h-FcγRI and m-FcγRIII or 10 mM NaOH after h-FcγRIIIA and m-FcγRI.
# [8] = molecular target: T2, humanized antibody Hz515H7 VH1 D76N VL2; test: SPR (Biacore X): m-FcγRI injected over hz515H7VH1D76NVL2 Mab immobilized on a CM4 sensorchip; heterogeneous ligand model, major component (82%)
# Method: as §1, with “1964” for “2017”, “hz515H7VH1D76NVL2” for “c515H7”
# as §2, §4
# [9] = molecular target: T1, chimeric antibody c515H7; test: SPR (Biacore X): m-FcγRI injected over c515H7 Mab immobilized on a CM4 sensorchip; heterogeneous ligand model, minor component (19%)
# Method: as §1, §2, §3
# [10] = molecular target: T1, chimeric antibody c515H7; test: SPR (Biacore X): m-FcγRI injected over c515H7 Mab immobilized on a CM4 sensorchip; heterogeneous ligand model, major component (81%)
# Method: as §1, §2, §3
# [11] = molecular target: T2, humanized antibody Hz515H7 VH1 D76N VL2; test: SPR (Biacore X): m-FcγRI injected over hz515H7VH1D76NVL2 Mab immobilized on a CM4 sensorchip; heterogeneous ligand model, minor component (18%)
# Method: as §1, with “1964” for “2017”, “hz515H7VH1D76NVL2” for “c515H7”
# as §2, §4
# [12] = molecular target: T1, chimeric antibody c515H7; test: SPR (Biacore X): m-FcγRI injected over c515H7 Mab immobilized on a CM4 sensorchip; Langmuir model
# Method: as §1, §2, §3
# [13] = molecular target: T1, chimeric antibody c515H7; test: SPR (Biacore X): h-FcγRI injected over c515H7 Mab immobilized on a CM4 sensorchip; Langmuir model
# Method: as §1, §2, §3
# [14] = molecular target: T2, humanized antibody Hz515H7 VH1 D76N VL2; test: SPR (Biacore X): h-FcγRI injected over hz515H7VH1D76NVL2 Mab immobilized on a CM4 sensorchip; Langmuir model
# Method: (§5) The experiments were carried out using a Biacore X device. The soluble forms of the four Fc […]gamma receptors used in this study were purchased from R&D Systems: […]
# [15] = molecular target: T2, humanized antibody Hz515H7 VH1 D76N VL2; test: SPR (Biacore X): h-FcγRI injected over hz515H7VH1D76NVL2 Mab immobilized on a CM4 sensorchip; heterogeneous ligand model, major component (99%)
# Method: as §5
# [16] = molecular target: T1, chimeric antibody c515H7; test: SPR (Biacore X): h-FcγRI injected over c515H7 Mab immobilized on a CM4 sensorchip; heterogeneous ligand model, major component (100%)
# Method: as §1, §2, §3
# [17] = molecular target: T1, chimeric antibody c515H7; test: SPR (Biacore X): h-FcγRI injected over c515H7 Mab immobilized on a CM4 sensorchip; heterogeneous ligand model, minor component (0%)
# Method: as §1, §2, §3
# [18] = molecular target: T2, humanized antibody Hz515H7 VH1 D76N VL2; test: SPR (Biacore X): h-FcγRI injected over hz515H7VH1D76NVL2 Mab immobilized on a CM4 sensorchip; heterogeneous ligand model, minor component (1%)
# Method: as §5
# T1 sequence (heavy, as listed by the source, chain 1 of 2): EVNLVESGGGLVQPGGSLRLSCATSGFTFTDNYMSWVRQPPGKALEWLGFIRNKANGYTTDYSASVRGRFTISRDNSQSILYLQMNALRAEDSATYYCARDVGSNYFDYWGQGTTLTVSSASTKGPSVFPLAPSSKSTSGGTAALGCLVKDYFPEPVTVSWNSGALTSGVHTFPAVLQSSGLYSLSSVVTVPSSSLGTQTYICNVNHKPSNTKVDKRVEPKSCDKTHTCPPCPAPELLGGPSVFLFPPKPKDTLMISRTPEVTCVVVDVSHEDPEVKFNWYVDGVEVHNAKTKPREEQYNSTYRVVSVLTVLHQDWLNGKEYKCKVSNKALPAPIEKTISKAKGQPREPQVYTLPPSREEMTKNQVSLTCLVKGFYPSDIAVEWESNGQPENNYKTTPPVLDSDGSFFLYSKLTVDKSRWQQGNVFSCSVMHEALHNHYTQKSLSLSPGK
# T1 sequence (light, as listed by the source, chain 2 of 2): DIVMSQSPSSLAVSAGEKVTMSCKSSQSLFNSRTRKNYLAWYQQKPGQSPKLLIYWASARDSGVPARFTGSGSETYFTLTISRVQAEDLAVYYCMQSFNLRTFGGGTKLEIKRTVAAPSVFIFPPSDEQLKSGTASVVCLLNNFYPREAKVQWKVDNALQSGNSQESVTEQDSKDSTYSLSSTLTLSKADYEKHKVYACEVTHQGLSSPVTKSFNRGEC
# T2 sequence (heavy, as listed by the source, chain 1 of 2): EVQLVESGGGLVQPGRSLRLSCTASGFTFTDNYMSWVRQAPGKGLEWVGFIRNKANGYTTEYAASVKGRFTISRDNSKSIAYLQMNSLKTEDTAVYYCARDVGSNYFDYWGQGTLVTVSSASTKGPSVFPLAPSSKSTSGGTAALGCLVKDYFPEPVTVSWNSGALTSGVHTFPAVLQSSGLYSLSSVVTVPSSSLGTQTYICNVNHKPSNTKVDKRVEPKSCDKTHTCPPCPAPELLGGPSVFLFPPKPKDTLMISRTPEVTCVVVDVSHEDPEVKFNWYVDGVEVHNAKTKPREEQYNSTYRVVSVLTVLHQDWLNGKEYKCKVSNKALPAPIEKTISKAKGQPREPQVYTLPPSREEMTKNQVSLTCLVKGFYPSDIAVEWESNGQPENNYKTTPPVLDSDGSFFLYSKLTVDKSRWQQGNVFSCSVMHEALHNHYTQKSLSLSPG
# T2 sequence (light, as listed by the source, chain 2 of 2): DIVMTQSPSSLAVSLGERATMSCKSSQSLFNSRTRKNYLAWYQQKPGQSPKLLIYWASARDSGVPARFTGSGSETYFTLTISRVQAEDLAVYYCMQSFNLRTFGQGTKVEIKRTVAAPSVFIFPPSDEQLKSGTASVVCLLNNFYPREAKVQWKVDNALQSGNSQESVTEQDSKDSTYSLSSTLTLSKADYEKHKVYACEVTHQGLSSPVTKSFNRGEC
binder,measurement,setting,value
"Recombinant mouse FcγRIII [CD16], Ala31-Thr215 with C-terminal 10-His tag (receptor, Soluble form bought from R&D Systems; also called m-FcγRIII) ALPKAVVKLDPPWIQVLKEDMVTLMCEGTHNPGNSSTQWFHNGRSIRSQVQASYTFKATVNDSGEYRCQMEQTRLSDPVDLGVISDWLLLQTPQRVFLEGETITLRCHSWRNKLLNRISFFHNEKSVRYHHYKSNFSIPKANHSHSGDYYCKGSLGSTQHQSKPVTITVQDPATTSSISLVWYHTHHHHHHHHHH",t1/2,[1],2.59 min
same,t1/2,[2],4.85 min
same,t1/2,[3],313 min
same,t1/2,[4],0.39 min
same,t1/2,[5],3.17 min
same,t1/2,[6],2.61 min
"Recombinant mouse FcγRI [CD64], Gln25-Pro297 with C-terminal 6-His tag (receptor, range 25-297; Soluble form bought from R&D Systems; also called m-FcγRI) EVVNATKAVITLQPPWVSIFQKENVTLWCEGPHLPGDSSTQWFINGTAVQISTPSYSIPEASFQDSGEYRCQIGSSMPSDPVQLQIHNDWLLLQASRRVLTEGEPLALRCHGWKNKLVYNVVFYRNGKSFQFSSDSEVAILKTNLSHSGIYHCSGTGRHRYTSAGVSITVKELFTTPVLRASVSSPFPEGSLVTLNCETNLLLQRPGLQLHFSFYVGSKILEYRNTSSEYHIARAEREDAGFYWCEVATEDSSVLKRSPELELQVLGPQSSAPHHHHHH",t1/2,[7],0.18 min
same,t1/2,[8],0.11 min
same,t1/2,[9],0.3 min
same,t1/2,[10],0.08 min
same,t1/2,[11],0.53 min
same,t1/2,[12],0.17 min
"Recombinant human FcγRI [CD64], Gln16-Pro288 with C-terminal 6-His tag (receptor, range 16-288; Soluble form bought from R&D Systems; also called h-FcγRI) QVDTTKAVITLQPPWVSVFQEETVTLHCEVLHLPGSSSTQWFLNGTATQTSTPSYRITSASVNDSGEYRCQRGLSGRSDPIQLEIHRGWLLLQVSSRVFTEGEPLALRCHAWKDKLVYNVLYYRNGKAFKFFHWNSNLTILKTNISHNGTYHCSGMGKHRYTSAGISVTVKELFPAPVLNASVTSPLLEGNLVTLSCETKLLLQRPGLQLYFSFYMGSKTLRGRNTSSEYQILTARREDSGLYWCEAATEDGNVLKRSPELELQVLGLQLPTPHHHHHH",t1/2,[13],19.3 min
same,t1/2,[14],21.4 min
same,t1/2,[15],28.9 min
same,t1/2,[16],19.3 min
same,t1/2,[17],158 min
same,t1/2,[18],578 min
